Test results published in patent US6100032, “Human Smad3 and Smad4 are sequence-specific transcription activators” (Johns Hopkins University).

What was measured:
[1] = molecular target: T1, GST-Smad2/MH1 (Homo sapiens, UniProt Q15796 Q15796:1-242); experiment: EMSA; data not shown; conditions: tags: GST N-terminal (pGEX2TK, Pharmacia); label: 32P
Procedure: To evaluate whether the analogous domain of human Smad proteins could bind DNA, GST fusion proteins containing the MH1 domains of Smads 2, 3, and 4 were constructed and expressed in $E. coli$. Electrophoresis mobility shift assays (EMSA) were performed using the purified proteins and labeled oligonucleotides containing the optimal sequence from Vg, essentially as described by Kim et al ). […] However, the binding was relatively inefficient, typically resulting in shifts of less than 5% of the input Vg probe. Several experimental manipulations were employed to increase the efficiency of binding (such as variations of cation, salt concentration, competitor, and other components of the binding buffer) without success.
DNA-binding assays were performed essentially as described except that poly (dI-dC), 6 ug/ml, was used as the only competitor and 2% NP-40 was included in the reaction mix. For binding to PCR products derived from clones (e.g., FIG. 1), 1.0–0.5 ug protein […] and 50 ng of DNA end-labeled to 2×10^6 dpm/ug, was used. For binding to oligonucleotides, 0.3–0.5 ug of protein (~0.4 uM final concentration) and 0.5 ng of DNA end-labeled to 2×10^8 dpm/ug, was used. […] Quantitation of binding was performed using an Instant Imager (Packard).

[2] = molecular target: Smad4 (non-fusion) (Homo sapiens, UniProt Q13485 Q13485:1-552); experiment: EMSA; data not shown; conditions: tags: none; rabbit reticulocyte lysate; label: 32P
Sequence of Smad4 (non-fusion) (Q13485 whole entry, the tested form may be a part, one chain of several): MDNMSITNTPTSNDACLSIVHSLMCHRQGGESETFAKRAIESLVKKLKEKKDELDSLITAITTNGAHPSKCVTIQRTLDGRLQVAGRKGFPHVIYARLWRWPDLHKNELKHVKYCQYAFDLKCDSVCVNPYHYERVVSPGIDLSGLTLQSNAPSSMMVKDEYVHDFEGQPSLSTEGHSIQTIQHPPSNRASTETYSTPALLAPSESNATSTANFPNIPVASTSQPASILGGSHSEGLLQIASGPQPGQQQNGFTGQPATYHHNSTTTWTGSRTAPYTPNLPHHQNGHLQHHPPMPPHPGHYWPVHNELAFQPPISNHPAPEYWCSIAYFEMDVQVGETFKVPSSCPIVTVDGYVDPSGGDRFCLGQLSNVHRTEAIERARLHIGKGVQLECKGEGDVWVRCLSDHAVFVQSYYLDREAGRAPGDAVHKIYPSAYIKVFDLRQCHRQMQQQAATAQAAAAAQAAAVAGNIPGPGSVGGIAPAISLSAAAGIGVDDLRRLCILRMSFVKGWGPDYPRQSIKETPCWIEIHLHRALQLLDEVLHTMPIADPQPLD

[3] = molecular target: His6-Smad4 full length (Homo sapiens, UniProt Q13485 Q13485:1-552); experiment: EMSA; full-length Smad4; conditions: tags: His6 (pET33b, Novagen); label: 32P
Sequence of His6-Smad4 full length (Q13485 whole entry, the tested form may be a part, one chain of several): as above
Procedure: (§1) (FIG. 2B) The ^32P-labeled SBE probe was incubated with 0.6 ug of a fusion protein containing either the MH1 domain of Smad4 (lane 1) or 0.4–1.6 ug of a fusion protein containing FL Smad4 (lanes 2–5).
(§2) DNA-binding assays were performed essentially as described except that poly (dI-dC), 6 ug/ml, was used as the only competitor and 2% NP-40 was included in the reaction mix. For binding to PCR products derived from clones (e.g., FIG. 1), 1.0–0.5 ug protein […] and 50 ng of DNA end-labeled to 2×10^6 dpm/ug, was used. For binding to oligonucleotides, 0.3–0.5 ug of protein (~0.4 uM final concentration) and 0.5 ng of DNA end-labeled to 2×10^8 dpm/ug, was used. Specificity of binding was checked by competition with unlabeled SBE oligonucleotides and lack of competition with irrelevant oligonucleotides. Quantitation of binding was performed using an Instant Imager (Packard).

[4] = molecular target: GST-Smad4/FL (Homo sapiens, UniProt Q13485 Q13485:1-552); experiment: EMSA; full-length Smad4; conditions: tags: GST N-terminal (pGEX2TK, Pharmacia); label: 32P
Sequence of GST-Smad4/FL (Q13485 whole entry, one chain of several): as the sequence (Q13485 whole entry, the tested form may be a part, one chain of several) above
Procedure: as §1, §2

[5] = molecular target: T1, GST-Smad2/MH1; experiment: EMSA; did not bind the palindrome (data not shown); exact probe not stated; conditions: tags: GST N-terminal (pGEX2TK, Pharmacia); label: 32P
[6] = molecular target: GST-Smad4/MH1 (Homo sapiens, UniProt Q13485 Q13485:1-276); experiment: EMSA; bound to same extent as longer selected-clone probes; poly(dI-dC), 2% NP-40; conditions: tags: GST N-terminal (pGEX2TK, Pharmacia); label: 32P
Sequence of GST-Smad4/MH1 (Q13485 1-276, one chain of several): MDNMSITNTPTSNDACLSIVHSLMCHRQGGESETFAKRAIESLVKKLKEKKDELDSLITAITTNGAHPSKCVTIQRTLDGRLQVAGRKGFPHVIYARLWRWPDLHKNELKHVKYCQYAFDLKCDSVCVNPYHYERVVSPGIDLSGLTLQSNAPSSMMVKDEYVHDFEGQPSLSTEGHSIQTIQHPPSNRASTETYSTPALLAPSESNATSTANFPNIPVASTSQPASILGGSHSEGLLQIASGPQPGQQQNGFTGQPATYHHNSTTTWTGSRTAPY
Procedure: as §1, §2

[7] = molecular target: GST-Smad3/MH1 (Homo sapiens, UniProt P84022 P84022:1-200); experiment: as above; conditions: tags: GST N-terminal (pGEX2TK, Pharmacia); label: 32P
Sequence of GST-Smad3/MH1 (P84022 1-200, one chain of several): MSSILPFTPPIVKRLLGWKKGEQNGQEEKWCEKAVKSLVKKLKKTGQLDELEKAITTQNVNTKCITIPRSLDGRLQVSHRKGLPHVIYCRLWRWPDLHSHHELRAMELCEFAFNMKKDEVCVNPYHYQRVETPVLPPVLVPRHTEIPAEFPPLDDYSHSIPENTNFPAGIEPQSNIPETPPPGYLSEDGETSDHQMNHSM
Procedure: as §1, §2

T1 sequence (Q15796 1-242, one chain of several): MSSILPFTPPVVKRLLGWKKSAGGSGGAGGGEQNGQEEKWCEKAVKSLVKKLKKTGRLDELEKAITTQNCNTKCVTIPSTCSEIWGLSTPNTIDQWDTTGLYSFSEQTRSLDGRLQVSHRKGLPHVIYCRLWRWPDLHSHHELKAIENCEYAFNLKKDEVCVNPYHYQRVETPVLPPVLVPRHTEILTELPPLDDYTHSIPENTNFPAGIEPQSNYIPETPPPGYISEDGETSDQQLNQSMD

B1: Vg probe (dsDNA)
DNA 1: TTTGTGCTTGGCTGCCGTCGCGATTCGACAACTTTGG
DNA 2: CCAAAGTTGTCGAATCGCGACGGCAGCCAAGCACAAA
B1: no binding [1].

B2: SBE probe (26 bp) (dsDNA)
DNA 1: GGAGTATGTCTAGACTGACAATGTAC
DNA 2: GTACATTGTCAGTCTAGACATACTCC
B2: binds [2]; binds [3]; binds [4]. B2: no binding [5]; binds [6]; binds [7].
